Where “and” joins values, the source holds several entries; their conditions need not be identical. Identical values can stand only once.
Molecular target: His-SUMO-2B protein (FMDV non-structural 2B protein fused to SUMO) (foot-and-mouth disease virus (FMDV) serotype Asia1)
Assay: cross-linking

“His-SUMO-2B protein (FMDV non-structural 2B protein fused to SUMO) (natural protein)” was tested, and the stoichiometry N was 2 and 4 and 6.
